A value given as a limit tells only on which side of the number the result lay.

Experiment [1] deals with T1, membrane-bound full-length human CD89 (human, UniProt P24071 22-287).
T1 construct: on stably or transiently transfected HEK293F cells; also called FcalphaRI; huCD89
Briefly: FACS, HEK293F-huCD89, 24 h 37C no NaN3, Ab 10 ug/mL then IgA; competitor non-aggr serum IgA. On the technique in general: Flow cytometry measures light scatter and fluorescence of single cells or particles in a stream.
Method: (§1) After extensive washing in PBS/BSA/NaN₃, 1:200 diluted PE-conjugated streptavidin (Jackson ImmunoResearch) was added, and incubated for 30 minutes at 4° C. After extensive washing in PBS/BSA/NaN₃, cells were fixed in 2% formaldehyde in PBS/BSA/NaN₃ for 30 minutes at 4° C.

The target in experiment [2] is T1, membrane-bound full-length human CD89. Briefly: FACS, HEK293F-huCD89, 24 h 37C no NaN3, Ab 10 ug/mL then IgA; competitor heat-aggr serum IgA.
Method: as §1
Experiment [3] deals with T2, chimeric bovine EC1-Fcγ2R/human EC2-CD89 (bovine/human chimera).
T2 chain: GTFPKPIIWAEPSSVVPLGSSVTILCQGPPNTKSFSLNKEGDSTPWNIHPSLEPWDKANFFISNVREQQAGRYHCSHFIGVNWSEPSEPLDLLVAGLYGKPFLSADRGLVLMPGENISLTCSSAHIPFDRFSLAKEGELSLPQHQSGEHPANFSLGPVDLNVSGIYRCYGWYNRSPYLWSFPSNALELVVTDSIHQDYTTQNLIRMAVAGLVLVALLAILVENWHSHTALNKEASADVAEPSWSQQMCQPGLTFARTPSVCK
Kind of experiment: FACS, transiently transfected HEK293F.
Method: After 48 hours and/or 72 hours, the binding of CD89/IgA blocking mouse anti-human CD89 antibodies to aforementioned chimeric human/bovine receptors on transfected cells was analyzed by FACS analysis. To this end, transient transfected HEK293F cells were put at 10×10⁶ cells/mL in ice-chilled phosphate-buffered saline containing 0.1% BSA (Sigma)/0.05% NaN₃ (PBS/BSA/NaN₃) supplemented with 50 μg/mL human IgGs (blocking Fcγ receptors; Sigma) for 10 minutes at 4° C. Then, 10 μL/tube (ie, 0.1×10⁶ cells) of these cells were incubated with or without 100 μL purified mouse anti-human CD89 antibody at 10 μg/mL (in PBS/BSA/NaN₃) for 30 minutes at 4° C. […] After extensive washing in PBS/BSA/NaN₃, cells were subsequently incubated with 1:200 diluted PE-conjugated goat anti-mouse IgG Fey-specific antibodies (Jackson ImmunoResearch) for 30 minutes at 4° C. After extensive washing in PBS/BSA/NaN₃, cells were fixed in 2% formaldehyde in PBS/BSA/NaN₃ for 30 minutes at 4° C.

For experiment [4], the target named is T1, membrane-bound full-length human CD89. Briefly: FACS, HEK293F-huCD89, unlabeled Ab 10 ug/mL first; competitor MIP8a-PE.
Method: (§2) Then, 10 μL/tube (ie, 0.1×10⁶ cells) of these cells were incubated with or without 100 μL purified mouse anti-human CD89 antibody at 10 μg/mL (in PBS/BSA/NaN₃) for 30 minutes at 4° C. […] After extensive washing in PBS/BSA/NaN₃, cells were fixed in 2% formaldehyde in PBS/BSA/NaN₃ for 30 minutes at 4° C.
The target is the same in experiment [5]. Kind of experiment: FACS, HEK293F-huCD89, unlabeled Ab 10 ug/mL first; competitor A59-PE.
Method: as §2
Experiment [6] shares this target. Kind of experiment: FACS, HEK293F-huCD89, 24 h 37C no NaN3, IgA then Ab 10 ug/mL; pre-bound non-aggr serum IgA.
Method: as §1
The target in experiment [7] is T3, chimeric human/cynomolgus monkey CD89-IV (human/cynomolgus monkey chimera, UniProt P24071 22-287).
T3 construct: also called ΔArg97-Gly121 human EC1-CD89
T3 chain: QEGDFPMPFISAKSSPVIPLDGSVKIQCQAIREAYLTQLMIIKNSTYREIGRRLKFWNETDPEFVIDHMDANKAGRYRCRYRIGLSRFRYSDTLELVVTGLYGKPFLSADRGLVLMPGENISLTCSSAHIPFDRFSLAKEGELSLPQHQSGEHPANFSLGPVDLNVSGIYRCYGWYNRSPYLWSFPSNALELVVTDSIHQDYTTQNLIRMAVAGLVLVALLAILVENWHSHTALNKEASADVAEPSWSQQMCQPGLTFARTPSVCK
Briefly: FACS, transiently transfected HEK293F, 10 ug/mL; ++ strong, + intermediate, -/+ weak.
Method: (§3) After 48 hours, the binding of CD89/IgA blocking mouse anti-human CD89 antibodies to aforementioned chimeric human CD89/cynomolgus monkey CD89 constructs on transfected cells was analyzed by FACS analysis. To this end, transient transfected HEK293F cells were put at 10×10⁶ cells/mL in ice-chilled phosphate-buffered saline containing 0.1% BSA (Sigma)/0.05% NaN₃ (PBS/BSA/NaN₃) supplemented with 50 μg/mL human IgGs (blocking Fcγ receptors; Sigma) for 10 minutes at 4° C. Then, 10 μL/tube (ie, 0.1×10⁶ cells) of these cells were incubated with or without 100 μL purified mouse anti-human CD89 antibody at 10 μg/mL (in PBS/BSA/NaN₃) for 30 minutes at 4° C. […] After extensive washing in PBS/BSA/NaN₃, cells were subsequently incubated with 1:200 diluted PE-conjugated goat anti-mouse IgG Fey-specific antibodies (Jackson ImmunoResearch) for 30 minutes at 4° C. After extensive washing in PBS/BSA/NaN₃, cells were fixed in 2% formaldehyde in PBS/BSA/NaN₃ for 30 minutes at 4° C.

Experiment [8] concerns the target T4, chimeric human/cynomolgus monkey CD89-I (human/cynomolgus monkey chimera, UniProt P24071 22-287).
T4 construct: also called ΔGln22-Lys46 human EC1-CD89; I (22-46)
T4 chain: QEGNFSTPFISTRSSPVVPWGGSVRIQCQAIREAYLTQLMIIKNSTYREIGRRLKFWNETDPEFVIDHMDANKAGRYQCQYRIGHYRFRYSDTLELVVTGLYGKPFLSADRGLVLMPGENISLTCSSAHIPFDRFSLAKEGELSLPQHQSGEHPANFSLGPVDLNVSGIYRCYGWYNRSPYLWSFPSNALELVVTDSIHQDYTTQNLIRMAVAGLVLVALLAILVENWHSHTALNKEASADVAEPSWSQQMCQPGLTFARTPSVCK
Described as above.
Method: as §3

For experiment [9], the target named is T1, membrane-bound full-length human CD89. Briefly: FACS, HEK293F-huCD89, 4C +NaN3, Ab 10 ug/mL then IgA; competitor non-aggr serum IgA.
Method: Then, 10 μL/tube (ie, 0.1×10⁶ cells) of these cells were incubated with or without 50 μL purified mouse anti-human CD89 antibody at 20 μg/mL (in PBS/BSA/NaN₃) for 30 minutes at 4° C. […] After extensive washing in PBS/BSA/NaN₃, 1:200 diluted PE-conjugated streptavidin (Jackson ImmunoResearch) was added, and incubated for 30 minutes at 4° C. After extensive washing in PBS/BSA/NaN₃, cells were fixed in 2% formaldehyde in PBS/BSA/NaN₃ for 30 minutes at 4° C.
For experiment [10] the target is unchanged. Briefly: FACS, HEK293F-huCD89, half-maximum binding.
Method: Then, 10 μL/tube (ie, 0.1×10⁶ cells) of these cells were incubated with or without 100 μL titrated (in PBS/BSA/NaN₃) purified chimeric mouse/human anti-human CD89 antibody/tube for 30 minutes at 4° C. […] After extensive washing in PBS/BSA/NaN₃, cells were subsequently incubated with 1:200 diluted PE-conjugated goat anti-human IgG Fey-specific antibodies (Jackson ImmunoResearch) for 30 minutes at 4° C. After extensive washing in PBS/BSA/NaN₃, cells were fixed in 2% formaldehyde in PBS/BSA/NaN₃ for 30 minutes at 4° C.
For experiment [11], the target named is T5, recombinant C-terminal polyhistidine-tagged human (extracellular) CD89 (human, UniProt P24071 22-227).
T5 construct: extracellular domain; bought (Sino Biological); also called rhuCD89
Briefly: ELISA, coated rhuCD89, half-maximum binding.
Method: After extensive washing with PBS/0.05% Tween 20, plates were blocked with PBS/0.05% Tween 20/1% BSA (Roche) for 1 hour at RT. Subsequently, plates were incubated with 50 μL titrated (in block buffer) purified mouse anti-human CD89 antibody/well for 1 hour at RT. […] After extensive washing in PBS/0.05% Tween 20, binding of antibodies on rhuCD89 was determined with 1:5,000 diluted horseradish peroxidase (HRP)-conjugated goat anti-mouse IgG Fey-specific antibodies (Jackson ImmunoResearch) for 1 hour at RT, followed by a ready-to-use solution of TMB substrate (Invitrogen) for colorimetric detection.
After extensive washing with PBS/0.05% Tween 20, plates were blocked with PBS/0.05% Tween 20/1% BSA (Roche) for 1 hour at RT. Subsequently, plates were incubated with and without 50 μL titrated (in block buffer) purified chimeric mouse/human anti-human CD89 antibody/well for 1 hour at RT. After extensive washing in PBS/0.05% Tween 20, binding of antibodies on rhuCD89 was determined with 1:5,000 diluted horseradish peroxidase (HRP)-conjugated goat anti-human IgG Fey-specific antibodies (Jackson ImmunoResearch) for 1 hour at RT, followed by a ready-to-use solution of TMB substrate (Invitrogen) for colorimetric detection.

Experiment [12] concerns the target T1, membrane-bound full-length human CD89. Kind of experiment: FACS, HEK293F-huCD89, 4C +NaN3, Ab 10 ug/mL then IgA; competitor heat-aggr serum IgA.
Method: To mimic human IgA immune complexes, human (serum-derived) IgA (Bethyl Laboratories) was heated at 63° C. for 30 minutes, and cooled down to RT followed by centrifugation at 4° C. 12000×g for 2 minutes to remove any insoluble protein precipitation.
Then, 10 μL/tube (ie, 0.1×10⁶ cells) of these cells were incubated with or without 50 μL purified mouse anti-human CD89 antibody at 20 μg/mL (in PBS/BSA/NaN₃) for 30 minutes at 4° C.
The target of experiment [13] is T6, membrane full-length cynomolgus monkey CD89 (cynomolgus monkey).
T6 construct: also called cynoCD89; cynomolgus EC1-CD89
T6 chain: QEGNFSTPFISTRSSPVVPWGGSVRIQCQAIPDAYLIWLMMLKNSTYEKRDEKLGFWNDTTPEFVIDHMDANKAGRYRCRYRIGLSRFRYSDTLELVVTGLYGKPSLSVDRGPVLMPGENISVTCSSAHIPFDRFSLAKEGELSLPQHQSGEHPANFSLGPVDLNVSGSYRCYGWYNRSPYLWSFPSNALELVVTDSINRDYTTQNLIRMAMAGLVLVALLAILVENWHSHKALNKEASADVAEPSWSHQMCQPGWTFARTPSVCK
Briefly: FACS, transiently transfected HEK293F; - = no binding.
Method: as §3

For experiment [14], the target named is T1, membrane-bound full-length human CD89. Briefly: FACS, HEK293F-huCD89, 24 h 37C no NaN3, IgA then Ab 10 ug/mL; pre-bound heat-aggr serum IgA.
Method: as §1

B1: mouse anti-human CD89-specific antibody 10E7 (antibody, mouse IgG1, V domains shown)
VH: EVQLVESGGGLVQPGGSLKLSCAASGLTFSSYGMSWVRQTPDKRLELVATINGNGDITYYPDSVKGRFTISRDNAKNTLYLQMSSLKSEDTAMYYCARDYDYDYAMDYWGQGTSVTVSS
VL: DIQMTQSTSSLSASLGDSVTISCRASQDIINYLNWYQQKPDGTVKLLIYYTSRLHSGVPSRFSGSGSGTEYSLTVSNLEKEDIATYFCQQGKTLPYTFGGGTKLEIK
A word on the EC50: it is the concentration at which the effect is half-maximal. On to B1, for which the “percent IgA binding (remaining)” value in experiment [1], in [2], in experiment [6] and in [14] was 0 to 25% throughout. Also, the binding result is recorded as “no binding (tested: 10 µg/mL)” in [3], “binds” in [7], “binds” in [8] and “no binding (tested: 10 µg/mL)” in experiment [13]. In experiment [4], the “% blocking of MIP8a-PE binding” value was less than 25%. In addition, in experiment [5], the “% blocking of A59-PE binding” value was less than 25%. Moreover, the “percent IgA binding” value in [9] and in experiment [12] was 0 to 25% in each case. Moreover, the EC50 was determined as 0.637 µg/mL in experiment [10] and 0.02 µg/mL in experiment [11].

B2: mouse anti-human CD89-specific antibody 20B4 (antibody, mouse IgG1, V domains shown)
VH: QVQLKESGPGLVAPSQSLSITCTVSGFSLTSYGVHWVRQPPGKGLEWLGIIWAGGSTSYNSALMSRLSISKDNSKSQVFLKMNSLQTDDTAMYYCARDHYDLFAYWGQGTLVTVSA
VL: DILMTQSPSSMSVSLGDTVSITCHASQDISRNIGWLQQKPGKSFKGLIYHGTNLEDGVPSRFSGSGSGADYSLTISSLESEDFADYYCVQYAQFPRTFGGGTKLEIK
B2: the “percent IgA binding (remaining)” value was 0 to 25% in experiment [1], 26 to 50% in [2], 0 to 25% in [6] and 26 to 50% in experiment [14]. Also, the binding result was “no binding (tested: 10 µg/mL)” in experiment [3], “binds” in experiment [7], “binds” in [8] and “no binding (tested: 10 µg/mL)” in experiment [13]. In experiment [4], the “% blocking of MIP8a-PE binding” value was less than 25%. In addition, the “percent IgA binding” value in experiment [9] and in [12] was 0 to 25% each time. For the same molecule, the EC50 in experiment [10] is 0.26 µg/mL; in [11], 0.013 µg/mL.

B3: mouse anti-human CD89-specific antibody 8F3 (antibody, mouse IgG1, V domains shown)
VH: EVQLVESGGGLVKPGGSLKLSCAASGFTFSNYGMSWVRQTPDKRLEWVATMHSGGTYTYYPDNVKGRFTISRDNAKNNLYLQMSSLRSEDTAMYYCARETGLYDGLFDFWGQGTTLTVSS
VL: DVQITQSPSYLAASPGETITINCRASKTISKYLAWYQEKPGKTNMLLIYSGSTLQSGVPSRFSGSGSGTDFTLTISSLEPEDLAMYYCQQHDEYPWTFGGGTKLEIK
In the case of B3, the “percent IgA binding (remaining)” value in [1], in experiment [2], in [6] and in experiment [14] was 0 to 25% throughout. In addition, the binding result was “no binding (tested: 10 µg/mL)” in [3], “binds” in experiment [7], “binds” in experiment [8] and “no binding (tested: 10 µg/mL)” in [13]. The “% blocking of MIP8a-PE binding” value in experiment [4] was less than 25%. In experiment [5], the “% blocking of A59-PE binding” value was less than 25%. Further, the “percent IgA binding” value in experiment [9] and in [12] was 0 to 25% each time. The EC50 came out at 0.714 µg/mL in experiment [10] and 0.052 µg/mL in [11].

(Values after patent US20210388084A1 (JJP BIOLOGICS SP Z O O, published 2021).)
